{"source": "patent US20250276018A1", "about": "(AFFYIMMUNE THERAPEUTICS, published 2025)", "binders": {"B1": {"name": "Affy6 CAR (control) (other)", "chain": "GSEQKLISEEDLGSQVQLVQSGAEVKKPGASVKVSCKASGYIFTAYTMHWVRQAPGQGLEWMGWIKPNNGLANYAQKFQGRVTMTRDTSISTAYMELSRLRSDDTAVYYCARSEITTEFDYWGQGTLVTVSSGGGGSGGGGSGGGGSDIVLTQSPDSLAVSLGERATINCKSSESVDSYANSFMHWYQQKPGQPPKLLIYRASTRESGVPDRFSGSGSRTDFTLTISSLQAEDVAVYYCQQSKEDPLTFGGGTKVEIKASTTTPAPRPPTPAPTIASQPLSLRPEACRPAAGGAVHTRGLDFACDFWVLVVVGGVLACYSLLVTVAFIIFWVRSKRSRLLHSDYMNMTPRRPGPTRKHYQPYAPPRDFAAYRSLRVKFSRSADAPAYQQGQNQLYNELNLGRREEYDVLDKRRGRDPEMGGKPRRKNPQEGLYNELQKDKMAEAYSEIGMKGERRRGKGHDGLYQGLSTATKDTYDALHMQALPPR", "notes": "Chimeric antigen receptor on transduced human T cells; P2A remnant not included; also called parent Affy6 CAR-T cells; parental Affy6"}}, "key": {"[1]": {"biological_target": "T1, AF647 labeled c-met protein (UniProt P08581 25-932, limits assumed, labeled with AlexaFluor 647 (AF647))", "T1 construct": "Soluble labeled c-met protein titrated on CAR-T cells", "T1 sequence (P08581 25-932 limits assumed)": "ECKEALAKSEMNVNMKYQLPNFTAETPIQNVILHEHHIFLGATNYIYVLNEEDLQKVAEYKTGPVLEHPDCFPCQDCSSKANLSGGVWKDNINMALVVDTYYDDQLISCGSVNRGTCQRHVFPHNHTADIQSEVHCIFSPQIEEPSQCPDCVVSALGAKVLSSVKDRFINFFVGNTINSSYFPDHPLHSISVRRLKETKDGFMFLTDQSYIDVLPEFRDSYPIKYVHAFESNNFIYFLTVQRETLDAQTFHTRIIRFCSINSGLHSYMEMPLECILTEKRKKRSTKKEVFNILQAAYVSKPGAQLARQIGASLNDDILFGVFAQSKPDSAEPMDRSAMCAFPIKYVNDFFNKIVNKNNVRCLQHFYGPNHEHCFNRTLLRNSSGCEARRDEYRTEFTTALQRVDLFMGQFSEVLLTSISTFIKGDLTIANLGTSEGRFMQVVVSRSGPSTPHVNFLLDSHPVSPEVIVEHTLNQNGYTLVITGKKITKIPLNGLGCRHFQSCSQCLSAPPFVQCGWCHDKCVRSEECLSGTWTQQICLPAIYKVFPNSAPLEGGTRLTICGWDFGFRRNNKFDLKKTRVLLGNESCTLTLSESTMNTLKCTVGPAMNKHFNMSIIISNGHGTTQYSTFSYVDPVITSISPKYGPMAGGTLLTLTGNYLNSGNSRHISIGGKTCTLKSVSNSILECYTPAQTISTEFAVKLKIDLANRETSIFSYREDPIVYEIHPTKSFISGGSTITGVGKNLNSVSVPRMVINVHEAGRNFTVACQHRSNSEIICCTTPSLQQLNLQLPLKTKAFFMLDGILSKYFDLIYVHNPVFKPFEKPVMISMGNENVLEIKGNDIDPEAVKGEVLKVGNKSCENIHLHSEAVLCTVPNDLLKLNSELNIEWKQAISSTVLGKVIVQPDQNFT", "assay": "flow cytometry, AF647-labeled c-met protein titrated on CAR-T cells (Round 2)", "description": "(§1) Binding of labeled c-MET to CAR-T cells expressing the affinity tuned c-MET scFvs was evaluated by transducing lentivirus anti-c-MET CAR particles into human T cells to form c-MET CAR-T cells incubated with AF647-labeled c-MET. […] Following a 48 hr. incubation at 37° C., the culture media was brought up to […] per well and incubated at 37° C. for 10 days.\n(§2) Cells were stained on ice for 30 mins and then washed with PBS. After washing, residually bound protein on CAR T cells were measured on a flow cytometer (Beckman, CytoFLEX®). The resulting binding data was fit using a non-linear regression analysis on GraphPad Prism to calculate half effective dose concentration (EC₅₀) values. The results of this analysis are shown in FIGS. 2-5 and Tables 2-5 below."}, "[2]": {"biological_target": "T2, c-MET on human target cells (human, UniProt P08581 25-1390)", "T2 sequence (P08581 25-1390)": "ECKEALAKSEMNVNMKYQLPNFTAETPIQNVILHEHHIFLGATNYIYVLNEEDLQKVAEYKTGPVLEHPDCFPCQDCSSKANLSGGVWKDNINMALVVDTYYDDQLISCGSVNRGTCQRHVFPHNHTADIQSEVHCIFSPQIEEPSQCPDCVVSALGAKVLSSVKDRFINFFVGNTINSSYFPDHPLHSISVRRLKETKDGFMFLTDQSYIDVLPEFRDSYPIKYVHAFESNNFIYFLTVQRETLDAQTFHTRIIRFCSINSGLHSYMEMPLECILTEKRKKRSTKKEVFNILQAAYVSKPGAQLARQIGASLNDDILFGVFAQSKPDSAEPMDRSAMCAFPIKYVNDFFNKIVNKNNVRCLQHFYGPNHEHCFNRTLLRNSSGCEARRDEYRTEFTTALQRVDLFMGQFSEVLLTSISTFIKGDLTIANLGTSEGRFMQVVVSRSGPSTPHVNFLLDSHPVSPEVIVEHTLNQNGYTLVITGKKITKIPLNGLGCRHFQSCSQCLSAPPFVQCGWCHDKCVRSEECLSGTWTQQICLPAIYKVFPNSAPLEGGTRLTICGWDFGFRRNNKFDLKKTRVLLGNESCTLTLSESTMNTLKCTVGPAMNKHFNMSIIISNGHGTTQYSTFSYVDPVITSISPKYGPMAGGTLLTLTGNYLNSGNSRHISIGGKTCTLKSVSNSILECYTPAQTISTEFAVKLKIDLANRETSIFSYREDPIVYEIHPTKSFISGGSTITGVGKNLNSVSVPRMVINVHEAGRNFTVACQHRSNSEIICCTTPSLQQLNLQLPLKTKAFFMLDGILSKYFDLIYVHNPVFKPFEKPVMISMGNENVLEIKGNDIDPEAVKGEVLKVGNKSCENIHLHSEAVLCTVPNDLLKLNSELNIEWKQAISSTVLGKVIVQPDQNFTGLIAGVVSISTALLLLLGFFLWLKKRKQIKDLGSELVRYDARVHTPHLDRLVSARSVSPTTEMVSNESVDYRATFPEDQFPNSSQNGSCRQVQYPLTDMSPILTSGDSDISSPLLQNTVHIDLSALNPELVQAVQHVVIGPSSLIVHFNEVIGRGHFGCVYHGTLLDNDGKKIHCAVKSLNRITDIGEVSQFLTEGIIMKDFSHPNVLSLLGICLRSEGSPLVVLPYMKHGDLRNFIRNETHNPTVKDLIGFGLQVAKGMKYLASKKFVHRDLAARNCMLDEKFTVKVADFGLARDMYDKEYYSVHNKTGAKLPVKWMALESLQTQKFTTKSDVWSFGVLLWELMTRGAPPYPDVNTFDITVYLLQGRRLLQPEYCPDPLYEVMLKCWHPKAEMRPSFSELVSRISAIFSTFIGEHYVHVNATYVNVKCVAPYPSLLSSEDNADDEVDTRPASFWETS", "assay": "cell-based or functional assay"}, "[3]": {"biological_target": "T2, c-MET on human target cells", "assay": "cell-based or functional assay", "remark": "listed apart in the source"}, "[4]": {"biological_target": "T2, c-MET on human target cells", "assay": "cell-based or functional assay", "remark": "listed apart in the source"}, "[5]": {"biological_target": "T2, c-MET on human target cells", "assay": "cell-based or functional assay", "remark": "listed apart in the source"}, "[6]": {"biological_target": "T1, AF647 labeled c-met protein", "assay": "flow cytometry, AF647-labeled c-met protein titrated on CAR-T cells (Round 1)", "description": "as §1, §2"}}}
{"binder": "B1", "values": [{"measurement": "EC50", "setting": "[1]", "value": 20, "unit": "nM"}, {"measurement": "cytotoxicity, Normal Human Kidney Cells, 8 hrs", "setting": "[2]", "value": 25.7}, {"measurement": "cytotoxicity, Normal Human Kidney Cells, 16 hrs", "setting": "[2]", "value": 45.4}, {"measurement": "cytotoxicity, Normal Human Kidney Cells, 24 hrs", "setting": "[2]", "value": 57}, {"measurement": "cytotoxicity, Normal Human Kidney Cells, 32 hrs", "setting": "[2]", "value": 65.5}, {"measurement": "cytotoxicity, Normal Human Kidney Cells, 40 hrs", "setting": "[2]", "value": 73}, {"measurement": "cytotoxicity, Normal Human Kidney Cells, 48 hrs", "setting": "[2]", "value": 78.8}, {"measurement": "cytotoxicity, Normal Human Colon Cells, 8 hrs", "setting": "[3]", "value": 24.6}, {"measurement": "cytotoxicity, Normal Human Colon Cells, 16 hrs", "setting": "[3]", "value": 37.7}, {"measurement": "cytotoxicity, Normal Human Colon Cells, 24 hrs", "setting": "[3]", "value": 46.4}, {"measurement": "cytotoxicity, Normal Human Colon Cells, 32 hrs", "setting": "[3]", "value": 57.3}, {"measurement": "cytotoxicity, Normal Human Colon Cells, 40 hrs", "setting": "[3]", "value": 72.3}, {"measurement": "cytotoxicity, Normal Human Colon Cells, 48 hrs", "setting": "[3]", "value": 83.8}, {"measurement": "cytotoxicity, Normal Human Lung Cells, 8 hrs", "setting": "[4]", "value": 38.4}, {"measurement": "cytotoxicity, Normal Human Lung Cells, 16 hrs", "setting": "[4]", "value": 47.1}, {"measurement": "cytotoxicity, Normal Human Lung Cells, 24 hrs", "setting": "[4]", "value": 54.7}, {"measurement": "cytotoxicity, Normal Human Lung Cells, 32 hrs", "setting": "[4]", "value": 63.1}, {"measurement": "cytotoxicity, Normal Human Lung Cells, 40 hrs", "setting": "[4]", "value": 76.4}, {"measurement": "cytotoxicity, Normal Human Lung Cells, 48 hrs", "setting": "[4]", "value": 85.2}, {"measurement": "cytotoxicity, Normal Human Liver Cells, 8 hrs", "setting": "[5]", "value": 28.4}, {"measurement": "cytotoxicity, Normal Human Liver Cells, 16 hrs", "setting": "[5]", "value": 47.1}, {"measurement": "cytotoxicity, Normal Human Liver Cells, 24 hrs", "setting": "[5]", "value": 59}, {"measurement": "cytotoxicity, Normal Human Liver Cells, 32 hrs", "setting": "[5]", "value": 67.9}, {"measurement": "cytotoxicity, Normal Human Liver Cells, 40 hrs", "setting": "[5]", "value": 76.8}, {"measurement": "cytotoxicity, Normal Human Liver Cells, 48 hrs", "setting": "[5]", "value": 83.6}, {"measurement": "EC50", "setting": "[6]", "value": 20, "unit": "nM"}]}
